T1: recombinant human IL-31 (hIL-31, BHK produced, A1277F, zcytor17lig CEE) (human, UniProt Q6EBC2 24-164)
T1 construct: also called recombinant hIL-31
T1 sequence: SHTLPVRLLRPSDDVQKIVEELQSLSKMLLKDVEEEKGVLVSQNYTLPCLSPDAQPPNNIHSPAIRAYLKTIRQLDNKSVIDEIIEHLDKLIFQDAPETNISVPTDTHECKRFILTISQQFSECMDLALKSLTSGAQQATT

T2: recombinant human IL-31 (as used in the NHK STAT3 phosphorylation assay of Example 5) (human, UniProt Q6EBC2 24-164, limits assumed)
T2 sequence: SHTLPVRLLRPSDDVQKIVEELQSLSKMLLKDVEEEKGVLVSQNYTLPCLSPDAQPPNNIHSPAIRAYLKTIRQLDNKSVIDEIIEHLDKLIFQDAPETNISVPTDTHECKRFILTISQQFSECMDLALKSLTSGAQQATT


Assays:
[1] = target: T1, recombinant human IL-31 (hIL-31, BHK …); test: SPR (Biacore), against parent 292.12.3.1
Description: (§1) The purified monoclonal antibodies were immobilized in individual flow cells on a CM5 type sensor chip. Immobilizations were performed using a standard amine coupling procedure, aiming for an immobilization level of 500 Resonance Units (RU). The antibodies were diluted to 1-5 ug/ml in 10 mM NaAc pH 4.5.
(§2) HPS-EP pH 7.4 (10 mM HEPES, 150 mM NaCl, 3 mM EDTA and 0.005% Polysorbat P20) was used as running buffer, and diluents for the recombinant hIL-31 (hIL-31, BHK produced, A1277F, zcytor17lig CEE). The hIL-31 was tested in a 3-fold dilution series from 333.3 nM to 1.4 nM. Association (injection) was 4 min., followed by a 20 min. dissociation (wash) period. Flow rate was 50 ul/min. Experiments were performed at 25OC. Regeneration of the surface was accomplished by injection of 30 sec. pulse of 10 mM Glycin-HCl pH 1.8 or 1M formic acid, at a 30 ul/min flow rate. Detection in all flow cells simultaneously. Flow cell #1 contained no immobilized antibody, and was used for subtraction of background and bulk.
(§3) The kinetic parameters were calculated by global fitting of the data using a 1:1 langmuir binding model. Data was inspected for mass-transport limitations prior to calculation of the kinetic parameters. In some experiments the Rmax was fitted locally, and the RI constant at 0.

[2] = target: recombinant human IL-31 (C108S), produced in E. coli by ZymoGenetics, MW 18 kDa (human), Q6EBC2; test: cell-based or functional assay
[3] = target: T2, recombinant human IL-31 (as used in the …); test: cell-based or functional assay
[4] = target: T1, recombinant human IL-31 (hIL-31, BHK …); test: SPR (Biacore), mAb amine-coupled to CM5 chip, hIL-31 injected
Description: as §1, §2, §3

Row | Binder | Relative potency loss (KD) [1] | Relative potency loss (kd) [1] | Average Fold loss in potency relative to 292.12.3.1, BAF-3(hIL-31R) proliferation assay [2] [fold] | Average Potency (IC50), inhibition of hIL-31-induced proliferation of BAF-3(hIL-31R) cells [2] [nM] | IC50, IL-31-induced STAT3 phosphorylation in NHK, Exp 8 [3] [nM] | IC50, IL-31-induced STAT3 phosphorylation in NHK, Exp 9 [3] [nM] | Kd [4] [nM] | koff [4] [s⁻¹] | kon [4] [M⁻¹ s⁻¹] | IC50, IL-31-induced STAT3 phosphorylation in NHK, Exp 10 [3] [nM]
1 | humanized 292.12.3.1 construct clone 27 (12VH1-gly + HC(F29L, M69L, R94F) + LC(F71Y)) (antibody, human IgG4, V domains shown) VH: QVQLVQSGAEVKKPGASVKVSCKASGYTLTRYWMQWVRQAPGQGLEWMGAIYPGDGDTRYSQKFQGRVTLTRDTSISTVYMELSSLRSEDTAVYYCAFPDGYYAAPYGMDYWGQGTLVTVSS VL: DIQMTQSPSSLSASVGDRVTITCRASGNIHNYLAWYQQKPGKVPKLLIYNAKTLADGVPSRFSGSGSGTDYTLTISSLQPEDVATYYCQHFWSTPWTFGQGTKVEIKR | ~0.5 x to parent | ~1.3 x to parent | 18.7 | 29.1 | 3.42 | 9.59 | 0.8 | 7.9e-05 | 98000 | 
2 | humanized 292.12.3.1 construct clone 30 (12VH1-gly + HC(F29L, V78A, R94F) + LC(F71Y)) (antibody, human IgG4, V domains shown) VH: QVQLVQSGAEVKKPGASVKVSCKASGYTLTRYWMQWVRQAPGQGLEWMGAIYPGDGDTRYSQKFQGRVTMTRDTSISTAYMELSSLRSEDTAVYYCAFPDGYYAAPYGMDYWGQGTLVTVSS VL: DIQMTQSPSSLSASVGDRVTITCRASGNIHNYLAWYQQKPGKVPKLLIYNAKTLADGVPSRFSGSGSGTDYTLTISSLQPEDVATYYCQHFWSTPWTFGQGTKVEIKR | ~0.5 x to parent | ~1.5 x to parent | 37.1 | 57.8 | 14.8 | 8.71 | 1.1 | 9e-05 | 78000 | 
3 | humanized 292.12.3.1 construct clone 29 (12VH1-gly + HC(F29L, T73K, R94F) + LC(F71Y)) (antibody, human IgG4, V domains shown) VH: QVQLVQSGAEVKKPGASVKVSCKASGYTLTRYWMQWVRQAPGQGLEWMGAIYPGDGDTRYSQKFQGRVTMTRDKSISTVYMELSSLRSEDTAVYYCAFPDGYYAAPYGMDYWGQGTLVTVSS VL: DIQMTQSPSSLSASVGDRVTITCRASGNIHNYLAWYQQKPGKVPKLLIYNAKTLADGVPSRFSGSGSGTDYTLTISSLQPEDVATYYCQHFWSTPWTFGQGTKVEIKR | ~0.5 x to parent | ~1.5 x to parent | 8.3 | 12.9 | 4.49 | 5.37 | 0.99 | 8.98e-05 | 90000 | 
4 | humanized 292.12.3.1 construct clone 35 (12VH1-gly + HC(F29L, R94F)) (antibody, human IgG4, V domains shown) VH: QVQLVQSGAEVKKPGASVKVSCKASGYTLTRYWMQWVRQAPGQGLEWMGAIYPGDGDTRYSQKFQGRVTMTRDTSISTVYMELSSLRSEDTAVYYCAFPDGYYAAPYGMDYWGQGTLVTVSS VL: DIQMTQSPSSLSASVGDRVTITCRASGNIHNYLAWYQQKPGKVPKLLIYNAKTLADGVPSRFSGSGSGTDFTLTISSLQPEDVATYYCQHFWSTPWTFGQGTKVEIKR | ~0.7 x to parent | ~1.5 x to parent | 75.1 | 62.1 |  |  | 1.6 | 0.0001 | 64000 | 12
5 | humanized 292.12.3.1 construct clone 28 (12VH1-gly + HC(F29L, R71A, R94F) + LC(F71Y)) (antibody, human IgG4, V domains shown) VH: QVQLVQSGAEVKKPGASVKVSCKASGYTLTRYWMQWVRQAPGQGLEWMGAIYPGDGDTRYSQKFQGRVTMTADTSISTVYMELSSLRSEDTAVYYCAFPDGYYAAPYGMDYWGQGTLVTVSS VL: DIQMTQSPSSLSASVGDRVTITCRASGNIHNYLAWYQQKPGKVPKLLIYNAKTLADGVPSRFSGSGSGTDYTLTISSLQPEDVATYYCQHFWSTPWTFGQGTKVEIKR | ~0.25 x to parent |  | 17.1 | 26.4 | 10.5 | 5.95 | 0.46 | 5.6e-05 | 120000 | 
6 | humanized 292.12.3.1 construct clone 36 (12VH1(germ)-gly + HC(F29L, T73K, R94F) + LC(F71Y)) (antibody, human IgG4, V domains shown) VH: QVQLVQSGAEVKKPGASVKVSCKASGYTLTRYWMQWVRQAPGQGLEWMGAIYPGDGDTRYSQKFQGRVTMTRDKSTSTVYMELSSLRSEDTAVYYCAFPDGYYAAPYGMDYWGQGTLVTVSS VL: DIQMTQSPSSLSASVGDRVTITCRASGNIHNYLAWYQQKPGKVPKLLIYNAKTLADGVPSRFSGSGSGTDYTLTISSLQPEDVATYYCQHFWSTPWTFGQGTKVEIKR | ~0.5 x to parent | ~1.5 x to parent |  | 14.1 |  |  | 1.6 | 0.000108 | 68000 | 8.95
7 | humanized 292.12.3.1 construct clone 31 (12VH1-gly + HC(F29L, M69L, R71A, V78A, R94F) + LC(F71Y)) (antibody, human IgG4, V domains shown) VH: QVQLVQSGAEVKKPGASVKVSCKASGYTLTRYWMQWVRQAPGQGLEWMGAIYPGDGDTRYSQKFQGRVTLTADTSISTAYMELSSLRSEDTAVYYCAFPDGYYAAPYGMDYWGQGTLVTVSS VL: DIQMTQSPSSLSASVGDRVTITCRASGNIHNYLAWYQQKPGKVPKLLIYNAKTLADGVPSRFSGSGSGTDYTLTISSLQPEDVATYYCQHFWSTPWTFGQGTKVEIKR | ~0.4 x to parent |  | 25.1 | 32.4 | 11 | 7.82 | 0.77 | 7e-05 | 92000 | 
8 | humanized 292.12.3.1 construct clone 33 (12VH1(germ)-gly + fback) (antibody, human IgG4, V domains shown) VH: QVQLVQSGAEVKKPGASVKVSCKASGYTLTRYWMQWVRQAPGQGLEWMGAIYPGDGDTRYSQKFQGRVTLTADKSTSTAYMELSSLRSEDTAVYYCAFPDGYYAAPYGMDYWGQGTLVTVSS VL: DIQMTQSPSSLSASVGDRVTITCRASGNIHNYLAWYQQKPGKVPKLLIYNAKTLADGVPSRFSGSRSETQYSLTISSLQPEDVATYYCQHFWSTPWTFGQGTKVEIKR | ~0.6 x to parent |  | 2.3 | 3.1 | 4.08 | 5.68 | 1.3 | 6.8e-05 | 52000 | 13.6
9 | humanized 292.12.3.1 construct clone 32 (12VH1-gly + HC(F29L, R71A, V78A, R94F) + LC(F71Y)) (antibody, human IgG4, V domains shown) VH: QVQLVQSGAEVKKPGASVKVSCKASGYTLTRYWMQWVRQAPGQGLEWMGAIYPGDGDTRYSQKFQGRVTMTADTSISTAYMELSSLRSEDTAVYYCAFPDGYYAAPYGMDYWGQGTLVTVSS VL: DIQMTQSPSSLSASVGDRVTITCRASGNIHNYLAWYQQKPGKVPKLLIYNAKTLADGVPSRFSGSGSGTDYTLTISSLQPEDVATYYCQHFWSTPWTFGQGTKVEIKR | ~0.3 x to parent |  | 14.7 | 18.9 | 11.5 | 6.43 | 0.64 | 5.9e-05 | 93000 | 

From patent publication US20200262913A1 (ZymoGenetics, published 2020)
